Article PMC6796840, “An H3K27me3 demethylase-HSFA2 regulatory loop orchestrates transgenerational thermomemory in Arabidopsis”

Target: His-HSFA2 (Arabidopsis thaliana, UniProt O80982 1-345)
Test: EMSA; HSFA2: 10 mM Tris-HCl pH 7.6, 25 mM KCl, 2.5 mM MgCl2, 1 mM EDTA, 1 mM DTT, 10% glycerol, 25 C 30 min; REF6C: 25 mM Tris-HCl pH 8.0, 100 mM NaCl, 2.5 mM MgCl2
Conditions: protein: recombinant; tags: His (pET32a in Methods); chain copies: 3; label: Cy5 end

Chain of His-HSFA2 (O80982 whole entry): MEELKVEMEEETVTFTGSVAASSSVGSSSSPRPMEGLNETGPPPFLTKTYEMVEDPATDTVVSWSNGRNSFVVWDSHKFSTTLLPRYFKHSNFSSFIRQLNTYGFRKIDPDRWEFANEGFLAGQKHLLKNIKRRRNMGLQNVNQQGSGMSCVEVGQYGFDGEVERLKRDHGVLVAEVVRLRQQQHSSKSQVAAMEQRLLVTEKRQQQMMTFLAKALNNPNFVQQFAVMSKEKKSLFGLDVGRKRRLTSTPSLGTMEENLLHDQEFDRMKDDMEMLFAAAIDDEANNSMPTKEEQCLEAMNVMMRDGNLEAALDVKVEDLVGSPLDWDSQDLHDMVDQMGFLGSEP

B1: BRM-HSE-P3 (dsDNA)
DNA 1: AGCCAGTGGCGATAAGATTTTTATTTTTCGAGAAGCCATCTCACTTATCGCCACTGGCT
DNA 2: AGCCAGTGGCGATAAGTGAGATGGCTTCTCGAAAAATAAAAATCTTATCGCCACTGGCT
- binding result: binds

B2: SGIP1-HSE-P4 (dsDNA)
DNA 1: AGCCAGTGGCGATAAGCTCTGAAAAGTTTCTGTCGAAGTCTTATCGCCACTGGCT
DNA 2: AGCCAGTGGCGATAAGACTTCGACAGAAACTTTTCAGAGCTTATCGCCACTGGCT
- binding result: binds

B3: REF6-HSE-P1 (dsDNA)
DNA 1: AGCCAGTGGCGATAAGCTACTAATTTCATGAACTACCAAAGACTCTTATCGCCACTGGCT
DNA 2: AGCCAGTGGCGATAAGAGTCTTTGGTAGTTCATGAAATTAGTAGCTTATCGCCACTGGCT
- binding result: binds

B4: BRM-HSE-P2 (dsDNA)
DNA 1: AGCCAGTGGCGATAAGTTTTACTTGTTTCGGGAAAAAAAACTACTTATCGCCACTGGCT
DNA 2: AGCCAGTGGCGATAAGTAGTTTTTTTTCCCGAAACAAGTAAAACTTATCGCCACTGGCT
- binding result: binds

B5: BRM-HSE-P1 (dsDNA)
DNA 1: AGCCAGTGGCGATAAGAACAAATTTATTCAGGAATCAGAAACACTTATCGCCACTGGCT
DNA 2: AGCCAGTGGCGATAAGTGTTTCTGATTCCTGAATAAATTTGTTCTTATCGCCACTGGCT
- binding result: binds
